Source: patent US12637517B2, “Enzyme and pathway modulation with sulfhydryl compounds and their derivatives” (HOFFMANN-LA ROCHE INC., priority 2020, dated 2026)

How the values were obtained:
[1] = target: FcRn (Homo sapiens, UniProt P55899); assay: Relative binding to FcRn by surface plasmon resonance (SPR); details: for Relative level of FcRn binding (at Day-14) (%): EXAMPLE-8, small-scale purified mAb from CHO L971 process, SPR
Excerpt: The neonatal Fe receptor (FcRn) influences the pharmacokinetic (PK) profile of IgG-type antibodies by its ability to salvage antibodies from the early endosome and recycle them back into circulation. The interaction with FcRn is considered to be the most critical factor in determining the PK of IgG-type therapeutic antibodies and is considered a surrogate for clearance (see review Nimmerjahn and Ravetch 2008).
(§1) Here, relative binding of the small-scale purified aSyn-L971-mAb samples to FcRn and FcγIIa (His131) by surface plasmon resonance (SPR) was determined. The relative binding of the small-scale purified aSyn-L971-mAb samples to the target was determined by ELISA.

[2] = target: T1, Fcγ-RIIa (H131) (Homo sapiens, UniProt P12318); assay: Relative binding to FcγIIa (His131) by surface plasmon resonance (SPR); details: for Relative level of FcyRIIa binding (at Day-14) (%): EXAMPLE-8, small-scale purified mAb from CHO L971 process, SPR, H131 allotype
T1 sequence (P12318 34-217 limits assumed): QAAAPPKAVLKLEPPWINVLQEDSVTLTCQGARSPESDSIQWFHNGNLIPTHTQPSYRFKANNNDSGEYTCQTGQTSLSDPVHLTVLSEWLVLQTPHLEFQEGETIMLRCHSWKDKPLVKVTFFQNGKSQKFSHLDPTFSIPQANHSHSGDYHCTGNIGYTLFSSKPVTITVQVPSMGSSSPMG
Excerpt: Fcγ-receptors are mediators of effector functions on immune effector cells. Among the different human Fcγ-receptors, Fcγ-RIIa is considered to be a dominant factor in mediating antibody dependent phagocytosis (ADCP). Of the two most prevalent allotypes of Fcγ-RIIa, the form with a histidine at amino acid position 131 (H131) is often described as the higher affinity allotype. (Nimmerjahn and Ravetch 2008, Yamada et al. 2013)
as §1

[3] = target: human α-synuclein (Homo sapiens, UniProt P37840); assay: Relative binding to the target by ELISA; details: for Relative level of Target binding (at Day-14) (%): EXAMPLE-8, small-scale purified mAb from CHO L971 process, ELISA
Protocol: as §1

Chain of FcRn (P55899 24-297 limits assumed): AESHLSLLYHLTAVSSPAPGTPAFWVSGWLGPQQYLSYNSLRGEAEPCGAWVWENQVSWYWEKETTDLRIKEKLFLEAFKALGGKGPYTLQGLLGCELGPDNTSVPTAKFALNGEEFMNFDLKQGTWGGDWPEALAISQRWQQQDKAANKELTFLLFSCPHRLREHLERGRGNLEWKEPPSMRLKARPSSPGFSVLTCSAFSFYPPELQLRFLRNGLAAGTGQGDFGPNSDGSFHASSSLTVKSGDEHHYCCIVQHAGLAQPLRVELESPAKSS
Chain of FcRn (P61769 21-119 partner): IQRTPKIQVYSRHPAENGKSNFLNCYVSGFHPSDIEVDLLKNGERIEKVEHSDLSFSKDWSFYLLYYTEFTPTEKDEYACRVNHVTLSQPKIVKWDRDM

Substance | Relative level of FcRn binding (at Day-14) (%) [1] [%] | Relative level of FcyRIIa binding (at Day-14) (%) [2] [%] | Relative level of Target binding (at Day-14) (%) [3] [%] | FcRn relative binding level, higher than from the process with 3 mM L-cystine ([1]; FIG. 11C, antibody from process with 6 mM L-cysteine vs 3 mM L-cystine) | FcRn relative binding level ([1]; FIG. 11C, antibody from the process with 3 mM L-cystine in production medium) | FcRn relative binding level ([1]; FIG. 11C, antibody from the process with 6 mM L-cysteine in production medium) | Fcγ-RIIa (H131) relative binding level, higher than from the process with 3 mM L-cystine ([2]; FIG. 11D, antibody from process with 6 mM L-cysteine vs 3 mM L-cystine) | Fcγ-RIIa (H131) relative binding level ([2]; FIG. 11D, antibody from the process with 3 mM L-cystine in production medium) | Fcγ-RIIa (H131) relative binding level ([2]; FIG. 11D, antibody from the process with 6 mM L-cysteine in production medium) | target relative binding level, higher than from the process with 3 mM L-cystine ([3]; FIG. 11E, antibody from process with 6 mM L-cysteine vs 3 mM L-cystine) | target relative binding level ([3]; FIG. 11E, antibody from the process with 3 mM L-cystine in production medium) | target relative binding level ([3]; FIG. 11E, antibody from the process with 6 mM L-cysteine in production medium)
anti-α-synuclein L971 (3 mM Cystine): anti-human α-synuclein monoclonal antibody (Prasinezumab) from CHO L971 process with 3 mM L-cystine in production medium | 85.0 | 77.0 | 83.0 | – | – | – | – | – | – | – | – | –
anti-α-synuclein L971 (6 mM Cysteine): anti-human α-synuclein monoclonal antibody (Prasinezumab) from CHO L971 process with 6 mM L-cysteine in production medium | 118.0 | 113.0 | 118.0 | – | – | – | – | – | – | – | – | –
anti-α-synuclein antibody L971: anti-human α-synuclein monoclonal antibody expressed by CHO L971 cell-line; CHO L971 cells produce Prasinezumab | – | – | – | about 33% | about 85% | about 118% | about 36% | about 77% | about 113% | about 35% | about 83% | about 118%
